The values that follow come from PMC6048237.

The target of this test is Trypanosoma evansi mevalonate kinase (TeMVK), N-terminal 6xHis-tagged recombinant (Trypanosoma evansi). In words: SEC; Superdex 200 16/600, 30 mM glycine pH 9.0, 150 mM NaCl; TeMVK expressed in autoinduction medium ZYM5052; sizes estimated from calibration with gel filtration standard.

Several values for one entry are separate records, joined by “and”; a condition that tells them apart may be missing. Identical values can stand only once.

In general, stoichiometry N refers to a count of units in the complex or per binding partner. On to “Trypanosoma evansi mevalonate kinase (TeMVK), N-terminal 6xHis-tagged recombinant (enzyme)”, for which the stoichiometry N is 2 and 4.
